Publication doi:10.1101/2021.04.23.440992

Target: FUS-DDIT3 (Type II fusion), recombinant
Experiment: partitioning of a labelled client into condensates

Substance	partition coefficient
BRG1^PLD, recombinant N-terminal prion-like domain of BRG1 (from UniProt P51532 1-340) (domain or fragment)	40
ARID1B^PLD, recombinant prion-like domain of ARID1B (domain or fragment)	3.8
ARID1A^PLD, recombinant prion-like domain of ARID1A (domain or fragment)	15

Next, values leading:

partition coefficient	Substance
27	BRG1, recombinant, RED-tris-NTA-labeled (from UniProt P51532 1-1647) (natural protein)
6	SS18^PLD, recombinant prion-like domain of SS18 (domain or fragment)
